US20150344570A1 (published 2015)

T1: FcγRIIa R (human, UniProt P12318 34-217)
T1 construct: extracellular domain; also called FcgRIIa R; FcγRIIa type R; not shown: His tag at the C terminus
T1 sequence (looked up): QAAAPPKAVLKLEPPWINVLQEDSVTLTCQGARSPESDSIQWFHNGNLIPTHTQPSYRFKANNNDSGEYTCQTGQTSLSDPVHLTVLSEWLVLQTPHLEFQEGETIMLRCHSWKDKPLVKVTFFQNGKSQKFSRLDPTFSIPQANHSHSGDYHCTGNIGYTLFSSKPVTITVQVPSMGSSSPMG

T2: FcγRIIb (human, UniProt P31994 43-217)
T2 construct: extracellular domain; also called FcgRIIb; 2b; not shown: His tag at the C terminus
T2 sequence (looked up): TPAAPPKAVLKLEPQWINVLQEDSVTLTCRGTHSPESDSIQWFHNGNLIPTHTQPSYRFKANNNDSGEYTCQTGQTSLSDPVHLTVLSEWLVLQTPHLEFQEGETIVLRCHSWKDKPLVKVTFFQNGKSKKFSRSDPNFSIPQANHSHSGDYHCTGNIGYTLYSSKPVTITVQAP

B1: GpH7-A5/GpH7-B3 variant L235_12R/GpL16-k0 (He Ab) (antibody, human IgG1, kappa)
heavy 1: not shown
heavy 2: not shown
light: DIVMTQSPLSLPVTPGEPASISCQASESLVHSNRNTYLHWYLQKPGQSPQLLIYKVSNRFSGVPDRFSGSGSGTDFTLKISRVEAEDVGVYYCSQNTHVPPTFGQGTKVEIERTVAAPSVFIFPPSDEQLKSGTASVVCLLNNFYPREAKVQWKVDNALQSGNSQESVTEQDSKDSTYSLSSTLTLSKADYEKHKVYACEVTHQGLSSPVTKSFNRGEC
notes: He Ab: mutation in one H chain only
B2: GpH7-A5/GpH7-B3 variant P238_01G/GpL16-k0 (antibody, human IgG1, kappa)
heavy 1: not shown
heavy 2: not shown
light: B1 light
notes: Heterodimerized anti-glypican-3 IgG1; mutation in one H chain only; also called He Ab
B3: GpH7-A5/GpH7-B3 variant S239_16H/GpL16-k0 (antibody, human IgG1, kappa)
heavy 1: not shown
heavy 2: not shown
light: B1 light
notes: as for B2
B4: GpH7-A5/GpH7-B3 variant D265_03V/GpL16-k0 (antibody, human IgG1, kappa)
heavy 1: not shown
heavy 2: not shown
light: B1 light
notes: as for B2
B5: GpH7-A5/GpH7-B3 variant G236_20W/GpL16-k0 (antibody, human IgG1, kappa)
heavy 1: not shown
heavy 2: not shown
light: B1 light
notes: as for B2
B6: GpH7-A5/GpH7-B3 variant S239_15Y/GpL16-k0 (antibody, human IgG1, kappa)
heavy 1: not shown
heavy 2: not shown
light: B1 light
notes: as for B2
B7: GpH7-A5/GpH7-B3 variant D265_06M/GpL16-k0 (antibody, human IgG1, kappa)
heavy 1: not shown
heavy 2: not shown
light: B1 light
notes: as for B2
B8: GpH7-A5/GpH7-B3 variant P238_18N/GpL16-k0 (antibody, human IgG1, kappa)
heavy 1: not shown
heavy 2: not shown
light: B1 light
notes: as for B2
B9: GpH7-A5/GpH7-B3 variant G236_16H/GpL16-k0 (antibody, human IgG1, kappa)
heavy 1: not shown
heavy 2: not shown
light: B1 light
notes: as for B2
B10: GpH7-A5/GpH7-B3 variant G236_19Q/GpL16-k0 (antibody, human IgG1, kappa)
heavy 1: not shown
heavy 2: not shown
light: B1 light
notes: as for B2
B11: GpH7-A5/GpH7-B3 variant G236_15Y/GpL16-k0 (antibody, human IgG1, kappa)
heavy 1: not shown
heavy 2: not shown
light: B1 light
notes: as for B2
B12: GpH7-A5/GpH7-B3 variant P238_14T/GpL16-k0 (antibody, human IgG1, kappa)
heavy 1: not shown
heavy 2: not shown
light: B1 light
notes: as for B2
B13: GpH7-A5/GpH7-B3 variant S239_12R/GpL16-k0 (antibody, human IgG1, kappa)
heavy 1: not shown
heavy 2: not shown
light: B1 light
notes: as for B2
B14: GpH7-A5/GpH7-B3 variant S239_04F/GpL16-k0 (antibody, human IgG1, kappa)
heavy 1: not shown
heavy 2: not shown
light: B1 light
notes: as for B2
B15: GpH7-A5/GpH7-B3 variant P238_02A/GpL16-k0 (antibody, human IgG1, kappa)
heavy 1: not shown
heavy 2: not shown
light: B1 light
notes: as for B2
B16: GpH7-A5/GpH7-B3 variant D265_07I/GpL16-k0 (antibody, human IgG1, kappa)
heavy 1: not shown
heavy 2: not shown
light: B1 light
notes: as for B2
B17: GpH7-A5/GpH7-B3 variant D265_08L/GpL16-k0 (antibody, human IgG1, kappa)
heavy 1: not shown
heavy 2: not shown
light: B1 light
notes: as for B2
B18: GpH7-A5/GpH7-B3 variant G237_14T/GpL16-k0 (antibody, human IgG1, kappa)
heavy 1: not shown
heavy 2: not shown
light: B1 light
notes: as for B2
B19: GpH7-A5/GpH7-B3 variant P238_11K/GpL16-k0 (antibody, human IgG1, kappa)
heavy 1: not shown
heavy 2: not shown
light: B1 light
notes: as for B2
B20: GpH7-A5/GpH7-B3 variant D265_02A/GpL16-k0 (antibody, human IgG1, kappa)
heavy 1: not shown
heavy 2: not shown
light: B1 light
notes: as for B2
B21: GpH7-A5/GpH7-B3 variant G237_03V/GpL16-k0 (antibody, human IgG1, kappa)
heavy 1: not shown
heavy 2: not shown
light: B1 light
notes: as for B2
B22: GpH7-A5/GpH7-B3 variant G237_16H/GpL16-k0 (antibody, human IgG1, kappa)
heavy 1: not shown
heavy 2: not shown
light: B1 light
notes: as for B2
B23: GpH7-A5/GpH7-B3 variant G237_05P/GpL16-k0 (antibody, human IgG1, kappa)
heavy 1: not shown
heavy 2: not shown
light: B1 light
notes: as for B2
B24: GpH7-A5/GpH7-B3 variant D265_04F/GpL16-k0 (antibody, human IgG1, kappa)
heavy 1: not shown
heavy 2: not shown
light: B1 light
notes: as for B2
B25: GpH7-A5/GpH7-B3 variant P238_12R/GpL16-k0 (antibody, human IgG1, kappa)
heavy 1: not shown
heavy 2: not shown
light: B1 light
notes: as for B2
B26: GpH7-A5/GpH7-B3 variant P238_13S/GpL16-k0 (antibody, human IgG1, kappa)
heavy 1: not shown
heavy 2: not shown
light: B1 light
notes: as for B2
B27: GpH7-A5/GpH7-B3 variant D265_01G/GpL16-k0 (antibody, human IgG1, kappa)
heavy 1: not shown
heavy 2: not shown
light: B1 light
notes: as for B2
B28: GpH7-A5/GpH7-B3 variant S239_11K/GpL16-k0 (antibody, human IgG1, kappa)
heavy 1: not shown
heavy 2: not shown
light: B1 light
notes: as for B2

Assays:
[1] = target: T3, FcγRIa extracellular domain with C-terminal His tag (human, UniProt P12314 16-292); test: SPR (Biacore), relative binding, HeCon Ab = 100
T3 construct: extracellular domain; Expressed in FreeStyle293 cells; analyte in the SPR assay; also called FcgRI; 1a
T3 sequence (P12314 16-292): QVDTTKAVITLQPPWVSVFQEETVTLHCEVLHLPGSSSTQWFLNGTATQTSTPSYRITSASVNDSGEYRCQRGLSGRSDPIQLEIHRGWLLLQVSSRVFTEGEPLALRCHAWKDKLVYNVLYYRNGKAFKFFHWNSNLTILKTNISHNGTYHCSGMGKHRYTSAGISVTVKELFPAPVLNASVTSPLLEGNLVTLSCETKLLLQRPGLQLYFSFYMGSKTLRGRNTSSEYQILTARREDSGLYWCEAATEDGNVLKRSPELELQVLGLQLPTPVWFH

[2] = target: T3, FcγRIa extracellular domain with …; test: SPR (Biacore); He/Con_1a divided by He/Con_2b (FcγRIa against FcγRIIb)
FcγRIIa R [3] = target: T1, FcγRIIa R; test: SPR (Biacore T100), antibody captured on antigen peptide chip, FcγR as analyte; binding relative to GpH7-A5/GpH7-B3/GpL16-k0 = 100
Method: (§1) The heterodimerized antibodies He Abs in which one of the H chains was introduced with an alteration were assayed for their binding activities to each activating FcγR and inhibitory FcγR according to the method described in Example 4. […] The activating FcγRs in FIGS. 26, 27, 28, and 29 are FcγRIa, FcγRIIa (R), FcγRIIa (H), and FcγRIIIa, respectively.
(§2) Analysis of interaction between objective antibody and the FcγR was carried out using Biacore T100 (GE Healthcare). HBS-EP+ (GE Healthcare) was used as the running buffer, and the measurement temperature was set to 25° C. Chips produced by immobilizing the antigen peptide by the amine coupling method to a Series S Sencor Chip CM5 (GE Healthcare), or alternatively, chips produced by allowing preliminarily biotinylated antigen peptides to interact with and immobilize onto a Series S Sensor Chip SA (certified) (GE Healthcare) were used. Antibodies of interest were captured onto an antigen peptide-immobilized chip, and allowed to interact to each FcγR diluted with running buffer. To regenerate and repeatedly use the chip, the antibodies captured on the chip were washed off by reacting 10 mM glycine-HCl, pH 1.5.

FcγRIIb = target: T2, FcγRIIb; test: as above
Method: as §1, §2

FcγRIIa R [4] = target: T1, FcγRIIa R; test: SPR (Biacore T100); He/Con_2aR divided by He/Con_2b (FcγRIIa R over FcγRIIb)
Method: as §1, §2

Binder | He/Con_1a [1] | He_1a/2b (Ia/IIb) [2] [ratio] | He/Con_2aR (IIaR binding) (FcγRIIa R [3]) | He/Con_2b (IIb binding) (FcγRIIb) | He_2aR/2b (IIaR/IIb) (FcγRIIa R [4]) [ratio]
B1 | 78 % of HeCon Ab (=100) | 8.12 | – | – | –
B2 | – | – | 75 % of control | 56 % of control | 1.34
B3 | – | – | 69.2 % of control | 49.4 % of control | 1.4
B4 | – | – | 5.8 % of control | 3.2 % of control | 1.8
B5 | – | – | 77.9 % of control | 58.2 % of control | 1.34
B6 | – | – | 42.2 % of control | 34.9 % of control | 1.21
B7 | – | – | 15.8 % of control | 10 % of control | 1.58
B8 | – | – | 91.9 % of control | 73.2 % of control | 1.26
B9 | – | – | 62.7 % of control | 27.9 % of control | 2.24
B10 | – | – | 74.2 % of control | 46.6 % of control | 1.59
B11 | – | – | 58.6 % of control | 39.5 % of control | 1.48
B12 | – | – | 73.1 % of control | 50.7 % of control | 1.44
B13 | – | – | 53.9 % of control | 39.1 % of control | 1.38
B14 | – | – | 54.8 % of control | 44.1 % of control | 1.24
B15 | – | – | 75.1 % of control | 57.4 % of control | 1.31
B16 | – | – | 3.4 % of control | 1.3 % of control | 2.57
B17 | – | – | 6.6 % of control | 4.6 % of control | 1.46
B18 | – | – | 78.6 % of control | 54.8 % of control | 1.43
B19 | – | – | 36.9 % of control | 18.1 % of control | 2.03
B20 | – | – | 33.9 % of control | 19.9 % of control | 1.71
B21 | – | – | 93 % of control | 61.4 % of control | 1.52
B22 | – | – | 74.5 % of control | 55.2 % of control | 1.35
B23 | – | – | 34.5 % of control | 24.6 % of control | 1.4
B24 | – | – | 5.6 % of control | 3.2 % of control | 1.79
B25 | – | – | 80.5 % of control | 51.4 % of control | 1.57
B26 | – | – | 88.9 % of control | 70.4 % of control | 1.26
B27 | – | – | 24.1 % of control | 16.1 % of control | 1.49
B28 | – | – | 48.5 % of control | 24.7 % of control | 1.96
